Source: patent US6214588

System: GAL4(1-147)-VP16 (Saccharomyces cerevisiae / herpes simplex virus?)
Conditions: in vitro transcription stimulation with purified holoenzyme, factor a, TBP; 10-fold in nuclear extract

pGAL4CG- (+GAL4 site template)
activity: 5 fold
